Experimental data as given in patent US20240352438A1, “MEANS AND METHODS FOR DETOXIFYING OCHRATOXIN A” (DSM Austria GmbH, priority 2021, published 2024).
Where a chain is given by its changes, count along the chain named.

B1: 316 (protein)
chain: MTTRTRILTAFLSLLAANACAADAAPAAPETVVLRCARMFDGASGKLVDNPQLTIVGNKIVRIAQGDKAEVPAGAEVVDLGDATCLPGFIDAHVHLVVQDSDQYRPRAYKDWQRFPAEHALRGAYWARIELEAGFTSVRDVAERDWVALGLRNAIDAGKVPGPRMLVSNFPVGSTSGHCDMDSVPPNRLPLVGPLQGTCNGPEECRAAVRYQIKYGANVIKFCPSSGAITFSNPADAPQLSPDEMNAVIGESEAWGRYVAAHAQGDKAAKMAVAAGVRSIEHGTFIQDDTLRAMKAKNVCLVPTISGVCEAEAQIGCYPPVMAEKGRAGMASMRQTFREAVQIGVPIALGTDSALPANGSQAREFRYMVENGLTPAQALLAGTANAARCLGTFDRVGTLEAGKLADVVAVPGNPIADITVTERPLFVMKDGVVVRRDAVR
modifications: exemplary polypeptide
B2: 83 (protein)
chain: MTTRTRILTAFLSLLAANACAADAAPAAPHTVVLRAARMFDGASGKLVDHPQLTIVGNKIVRIAQGDKAEVPAGAEVVDLGDATLLPGFIDAHVHLSGQSSDNWYGDFFDNMMRFPAEQALYGAYYARITLEAGFTSVRDVGSTDWVALGLRNAIDAGKVPGPRMLVSNYAVGSTGGHADQDPIPPHKLPLAGPLQGVCNGPEECRAAVRYQIKYGANVIKFMPSGGVISLSDPVDAPELSQDEMNAVIGESHAWGRKVAAHAHGDKAAKMAVAAGVDSIEHGSFIEDDTLRAMKAKNVYLVPTISAIAHVEEKIGTFPPVIAEKGRAAAAHLRQTFRHAVQIGVPIALGTDAGVGAHGSNAREFRYMVENGLTPAQALLAGTANAARLLGTFDRVGTLEAGKLADVVAVPGNPIADITVTERPLFVMKDGVVVRRDAVR
modifications: exemplary polypeptide
B3: 84 (protein)
chain: B2 chain with I229L, H264N
modifications: exemplary polypeptide
B4: 85 (protein)
chain: B2 chain with I229L, H264L
modifications: exemplary polypeptide
B5: 87 (protein)
chain: B2 chain with I229L, I308A
modifications: exemplary polypeptide
B6: 88 (protein)
chain: B2 chain with I229L, V311L
modifications: exemplary polypeptide
B7: 89 (protein)
chain: B2 chain with I229L, V311I
modifications: exemplary polypeptide
B8: 91 (protein)
chain: B2 chain with I229L, F318L
modifications: exemplary polypeptide
B9: 95 (protein)
chain: B2 chain with I229L, V355L
modifications: exemplary polypeptide
B10: 96 (protein)
chain: B2 chain with I229L, V355I
modifications: exemplary polypeptide
B11: 103 (protein)
chain: B2 chain with I184V, I229L
modifications: exemplary polypeptide
B12: 105 (protein)
chain: B2 chain with H187Q, I229L
modifications: exemplary polypeptide
B13: 106 (protein)
chain: B2 chain with H187N, I229L
modifications: exemplary polypeptide
B14: 107 (protein)
chain: B2 chain with I229L, H310Q
modifications: exemplary polypeptide
B15: 108 (protein)
chain: B2 chain with I229L, H310N
modifications: exemplary polypeptide
B16: 111 (protein)
chain: B2 chain with I229L, H332Q
modifications: exemplary polypeptide
B17: 113 (protein)
chain: B2 chain with I229L, E287Q
modifications: exemplary polypeptide

Test: OTA detoxification activity assay (specific activity, fluorescence reduction ex/em 390/450 nm)
Assay type: biochemical
Conditions: pH 6.0; SEQ ID NO: 1 = 100%
Method in brief: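 Recombinant enzyme preparation with 200 ng/mL OTA in 100 mM sodium phosphate, at pH 6.0 and pH 7.5, 37° C. Degradation followed as the fall in fluorescence at ex/em 390/450 nm. Specific activity taken from the initial linear slope; one unit degrades 1 μmol OTA per min at a starting OTA of […].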

Row | Molecule | Specific OTA detoxification activities in % compared to the enzyme of SEQ ID NO: 1, pH 6.0 [%]
1 | B1 | 62
2 | B2 | 63
3 | B3 | 3
4 | B4 | 5
5 | B5 | 65
6 | B6 | 66
7 | B7 | 43
8 | B8 | 49
9 | B9 | 108
10 | B10 | 42
11 | B11 | 101
12 | B12 | 81
13 | B13 | 88
14 | B14 | 54
15 | B15 | 61
16 | B16 | 8
17 | B17 | 31

Same assay, conditions: pH 7.5; SEQ ID NO: 1 = 100%

Row | Molecule | Specific OTA detoxification activities in % compared to the enzyme of SEQ ID NO: 1, pH 7.5 [%]
18 | B1 | 61
19 | B2 | 90
20 | B3 | 5
21 | B4 | 3
22 | B5 | 166
23 | B6 | 91
24 | B7 | 107
25 | B8 | 73
26 | B9 | 178
27 | B10 | 33
28 | B11 | 124
29 | B12 | 120
30 | B13 | 126
31 | B14 | 92
32 | B15 | 96
33 | B16 | 52
34 | B17 | 95

Test: Enzymatic activity comparison: activity remaining after 65° C. for 10 min at pH 6.0, relative to SEQ ID NO: 1
Assay type: physicochemical
Conditions: not given
Procedure: To compare the temperature behavior and thermostability of selected enzymes to one another, enzyme was incubated at 65° C. for 10 min at pH 6.0. The enzymatic activity remaining after incubation was compared to the remaining activity of the enzyme of SEQ ID NO: 1 after incubation, the latter being set to 100%, see Table 16.

Row | Molecule | Enzymatic activity remaining after incubation, compared to SEQ ID NO: 1 (set to 100%) [%]
35 | B1 | 25
36 | B2 | 19
37 | B3 | 58
38 | B4 | 95
39 | B5 | 53
40 | B6 | 33
41 | B7 | 71
42 | B8 | 16
43 | B9 | 38
44 | B10 | 39
45 | B11 | 36
46 | B12 | 15
47 | B13 | 27
48 | B14 | 21
49 | B15 | 27
50 | B16 | 35
51 | B17 | 62
